Experimental findings from PMC9426481, “Structure and Function of BcpE2, the Most Promiscuous GH3-Family Glucose Scavenging Beta-Glucosidase” (mBio, 2022) are described below.

One may read the Km as the substrate concentration at which the rate is half of its maximum. In general, kcat refers to the number of substrate molecules converted per active site and unit of time at saturation. By kcat/Km is commonly meant the turnover number divided by the Michaelis constant.

Series [1] deals with T1, BcpE2 (Streptomyces scabiei, UniProt C9ZDY4).
T1 construct: gene SCAB_64101; BcpE2-His6
Nature of the series: TLC hydrolysis assay with purified enzyme (complete hydrolysis). The class given is biochemical.

Series [2] deals with T2, BglC (His6-BglC) (Streptomyces scabiei, UniProt C9Z448).
T2 construct: gene SCAB_57721; N-terminal His6 tag kept; plasmid pSAJ022; host E. coli BL21(DE3) Rosetta
T2 sequence (C9Z448 entry or part of it): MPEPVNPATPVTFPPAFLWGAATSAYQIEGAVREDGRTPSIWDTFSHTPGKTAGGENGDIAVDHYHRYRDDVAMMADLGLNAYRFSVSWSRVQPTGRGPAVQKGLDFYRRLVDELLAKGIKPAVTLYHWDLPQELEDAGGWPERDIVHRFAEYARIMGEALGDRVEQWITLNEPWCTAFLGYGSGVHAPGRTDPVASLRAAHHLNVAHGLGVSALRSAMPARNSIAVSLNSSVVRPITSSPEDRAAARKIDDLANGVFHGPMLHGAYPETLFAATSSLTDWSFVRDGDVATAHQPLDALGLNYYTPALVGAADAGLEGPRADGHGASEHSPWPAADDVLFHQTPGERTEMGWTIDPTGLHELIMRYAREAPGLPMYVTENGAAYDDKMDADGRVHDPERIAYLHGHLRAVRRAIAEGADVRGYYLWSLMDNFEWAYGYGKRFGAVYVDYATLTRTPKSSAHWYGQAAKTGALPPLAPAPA
In words: glucose release; substrate inhibition fit. The class given is biochemical. As to conditions: Ki of substrate inhibition.

Substrate in series [3]: OCc1ccccc1O[C@@H]1O[C@H](CO)[C@@H](O)[C@H](O)[C@H]1O
In words: Hydrolysis kinetics (glucose release, Km) and TLC with purified enzyme. In kind it is biochemical, Streptomyces scabiei.

Substrate in series [4]: OC[C@H]1O[C@@H](Oc2ccc(O)cc2)[C@H](O)[C@@H](O)[C@@H]1O
The description is as above. In kind it is biochemical, Streptomyces scabiei.

Substrate in series [5]: COc1cc(/C=C/CO)ccc1O[C@@H]1O[C@H](CO)[C@@H](O)[C@H](O)[C@H]1O
The description is as above. In kind it is biochemical, Streptomyces scabiei.

Substrate in series [6]: COc1cc(/C=C/CO)cc(OC)c1O[C@@H]1O[C@H](CO)[C@@H](O)[C@H](O)[C@H]1O
Described as above. In kind it is biochemical, Streptomyces scabiei.

Substrate in series [7]: OC[C@H]1O[C@@H](O[C@H]2[C@H](O)[C@@H](CO)OC(O)[C@@H]2O)[C@H](O)[C@@H](O)[C@@H]1O
Described as above. The class given is biochemical, Streptomyces scabiei.

Substrate in series [8]: OC/C=C/c1ccc(O[C@@H]2O[C@H](CO)[C@@H](O)[C@H](O)[C@H]2O)cc1
Nature of the series: purified protein. The class given is biochemical, Streptomyces scabiei.

Substrate in series [9]: COc1cc2ccc(=O)oc2cc1O[C@@H]1O[C@H](CO)[C@@H](O)[C@H](O)[C@H]1O
Nature of the series: purified protein. The class given is biochemical, Streptomyces scabiei.

As to `OC[C@H]1O[C@@H](Oc2cc3c(O[C@@H]4O[C@H](CO)[C@@H](O)[C@H](O)[C@H]4O)cc(O)cc3[o+]c2-c2ccc(O)c(O)c2)[C@H](O)[C@@H](O)[C@@H]1O` [Cyanin], the “TLC hydrolysis assay with purified enzyme (complete hydrolysis)” value in series [1] is recorded as “Cyanin (Cyanidin-3,5-di-O-glucoside)|Antho-cyanosides|+|−|NT|NT|NT|NT”.

For `COc1cc2ccc(=O)oc2cc1O[C@@H]1O[C@H](CO)[C@@H](O)[C@H](O)[C@H]1O` [Scopolin], in series [2], the Ki entry is reported as “the Ki value for BcpE2 appeared to be lower, indicating a stronger inhibition compared to BglC”.

Turning to `CC(C)(C#N)O[C@@H]1O[C@H](CO)[C@@H](O)[C@H](O)[C@H]1O` [Linamarin], the “TLC hydrolysis assay with purified enzyme (complete hydrolysis)” value in series [1] is “Linamarin|Cyanogenic glycosides|+|−|NT|NT|NT|NT”.

B1: BcpE2 (Streptomyces scabiei 87.22) (protein)
chain: MAATPGTRTTPADEAREAAVEKALAALDLDAKARLLSGQDMWTLPALPEIGLASLVMSDGPIGVRGVRWTADDPSVALPSPTALAATWDPGLARRAGVLLAQEARRKGVHVLLAPTVNLHRSPLGGRHFEAYSEDPYLTGEIGSGYVTGVQAGGVGTTVKHFVANDAETDRFTVNNLVSARALRELYLAPFEAIVANAHPWGIMTAYNQVNGSTMTEHRYLVNEVLRGEWGFDGFNVSDWLAARSTTGALTGGLDVAMPGPATVYGEPLAAAVRAGEVTESLLDEAVRRVLRLAARVGILEGAAPAVTELPAPVDGEALAREIARRSFVLVRNEVRDGRAALPLEQGATVALIGAAARDARVLGGGSATVFPARVVSPLDGLTAALPEGAPTYALGADPNEELAVADTGFTLRAVCRDASGTVIGTRSAPNGHIQWMGSDLPDGVTHATLHSVELTGTFTPRETGTHTFGVKGLGAYTLTVDGTTHFDGVRTTDTDDPFVSFFGAPVPLAEVELTEGTPLEVSLTHVVELAADAPITMLAFSLCHQEPQRDPDELIAEAVEAARAADTAVVVVATTERVESEGFDRKDLRLPGRQDDLVRAVAAANPATVVVVNAGSPVELPWREDVAAVLLTWFPGQEGGAALAEVLTGAHEPGGRLPTTWGSLTGAPVTQVTPTAGELVYDEGVFIGYRAWDKEDRTPTYPFGHGLGYTDWTYESLDVTGTTATVRVRNTGTREGRETVQLYLAPTTADENRPTRWLAGFATVEAAPGETAEAVVRLPRRAFEIWDETTGAWVYVTGSYEVAAGRSIADRRTRVTIEAP
notes: BcpE2-His6
On to B1, for which the Km in series [3] was 142 ± 30 µM; in [4], 367 ± 80 µM; in [5], 151 ± 43 µM; in [6] it was 608 ± 166 µM; in [7], 6557 ± 1410 µM; in [8], 236 µM. Moreover, in series [9], the Km is 356 µM. Moreover, the kcat in [3] is 53.2 ± 2.37 s⁻¹; in [4], 43.2 ± 2.5 s⁻¹; in series [5] it was 83.3 ± 5.9 s⁻¹; in [6] it was 26.4 ± 3.07 s⁻¹; in series [7], 8.74 ± 1.02 s⁻¹; in series [8], 77.2 s⁻¹. In addition, the kcat in series [9] was determined as 192 s⁻¹. Moreover, the specificity constant (kcat/Km) turned out to be 376000 M⁻¹ s⁻¹ in series [3]; 117000 M⁻¹ s⁻¹ in [4]; 551000 M⁻¹ s⁻¹ in series [5]; 43500 M⁻¹ s⁻¹ in [6]; 1330 M⁻¹ s⁻¹ in series [7]; 326000 M⁻¹ s⁻¹ in series [8]. The kcat/Km in [9] is 540000 M⁻¹ s⁻¹.
